A short description of data set [1]: β4Gal-T enzyme assay, specific activity in the presence of various metal ions. In kind it is biochemical, bovine. The following applies: 500 μM UDP-Gal, 25 mM GlcNAc; for Catalytic Activity in the Presence of Various Metal Ions: Co: 0.1 mM Co^2+; for Catalytic Activity in the Presence of Various Metal Ions: Zn: 0.1 mM Zn^2+; for Catalytic Activity in the Presence of Various Metal Ions: Ca / Catalytic Activity in the Presence of Various Metal Ions: Mg / Catalytic Activity in the Presence of Various Metal Ions: Mn / Catalytic Activity in the Presence of Various Metal Ions: Sr: 5 mM metal ion. The protocol:
Protein concentrations were measured using the Bio-Rad Protein Assay kit, based on the method of Bradford and further verified on SDS-PAGE gels using standard protein concentration markers. An in vitro assay procedure for Gal-T1 has been reported previously (Ramakrishnan et al., J. Mol. Biol., 310:205 (2001)). The activities were measured using UDP-Gal as sugar nucleotide donor, and GlcNAc as the acceptor sugar. For the specific activity measurements, a 100 μL incubation mixture containing 25 mM GlcNAc, 5 mM MnCl2 or MgCl2, 20 mM Tris-HCl pH 8.0, 500 μM UDP-Gal, 500 ng M344H-Gal-T1 or 30 ng of C342T-Gal-T1 and 0.5 μCi ^3H-UDP-Gal was used for each Gal-T reaction. The incubation was carried out at 30° C. for 15 minutes. The reaction was terminated by adding of 200 μl cold water, and the mixture was passed through a 0.5 mL bed volume column of AG 1-X8 […] resin (Bio-Rad) to remove any unreacted ^3H-UDP-Gal. The column was washed successively with 300, 400 and 500 μl of cold water, and the column flow-through was diluted with Biosafe scintillation fluid; radioactivity was measured with a Beckman counter. A reaction without the acceptor sugar was used as a control. Only 0.1 mM concentration of ZnCl2 or CoCl2 was used whenever Zn^2+ or Co^2+ was used during the enzyme assay.

Data set [2] can be described thus: Metal ion activation curve, metal binding constants for Mn^2+. In kind it is biochemical, bovine. From the text: The activation curve of M344E-Gal-T1, using Mn^2+, is strikingly different from that of the wild-type enzyme (FIGS. 1A and 1B). In contrast to the wild type enzyme, the velocity curve obtained with the Mn^2+ concentration for the M344E-Gal-T1 mutant is not sigmoidal. On the other hand, the same curve for the M344H-Gal-T1 mutant in the presence of the Mg^2+ is sigmoidal (FIG. 1C). The observation that activation of the wild type enzyme by metal ions is sigmoidal has been interpreted as involving two metal binding sites in the enzyme: one with high affinity (Kd1), which is associated with low velocity, and a second site with low affinity (Kd2), which is associated with high velocity (Powell and Brew, J. Biol. Chem., 251:3645 (1976); Boeggeman and Qasba, Glycobiology, 12:395 (2002)). […] The values of the dissociation constant (Kd) for Mn^2+ of the mutant are quite different from that of the wild type (Table IV).
The enzyme activation data at various concentrations of Mg^2+ were fitted to an equation describing metal binding to a high affinity site (K1) to generate an enzyme form with a low kcat (V1) and to a second, lower affinity site (K2) to generate a form with a higher kcat (V2) (Boeggeman and Qasba, Glycobiology, 12:395 (2002)): […]

Marks after values point to notes of the source that are not given here.

B1: M344E-Gal-T1: bovine β4Gal-T1 catalytic domain (C342T) with Met344 mutated to glutamic acid (protein, listed as Bos taurus)
chain: MKFREPLLGGSAAMPGASLQRACRLLVAVCALHLGVTLVYYLAGRDLRRLPQLVGVHPPLQGSSHGAAAIGQPSGELRLRGVAPPPPLQNSSKPRSRAPSNLDAYSHPGPGPGPGSNLTSAPVPSTTTRSLTACPEESPLLVGPMLIEFNIPVDLKLIEQQNPKVKLGGRYTPMDCISPHKVAIIILFRNRQEHLKYWLYYLHPMVQRQQLDYGIYVINQAGESMFNRAKLLNVGFKEALKDYDYNCFVFSDVDLIPMNDHNTYRCFSQPRHISVAMDKFGFSLPYVQYFGGVSALSKQQFLSINGFPNNYWGWGGEDDDIYNRLAFRGMSVSRPNAVIGKCREIRHSRDKKNEPNPQRFDRIAHTKETMLSDGLNSLTYMVLEVQRYPLYTKITVDIGTPS
Regarding B1, in data set [1], the “Catalytic Activity in the Presence of Various Metal Ions: Co” value (“Catalytic Activity in the Presence … Co” below) is reported as 0.24 picomoles per minute per nanogram, the “Catalytic Activity in the Presence of Various Metal Ions: Zn” value (shortened to “Catalytic Activity in the Presence … Zn”) is 0.27 picomoles per minute per nanogram, the “Catalytic Activity in the Presence of Various Metal Ions: Ca” value is 0.01 picomoles per minute per nanogram and the “Catalytic Activity in the Presence of Various Metal Ions: Mg” value (“Catalytic Activity in the Presence … Mg” for short) is listed as 0 picomoles per minute per nanogram. Moreover, in data set [1], the “Catalytic Activity in the Presence of Various Metal Ions: Mn” value (“Catalytic Activity in the Presence … Mn” below) was 0.32 picomoles per minute per nanogram and the “Catalytic Activity in the Presence of Various Metal Ions: Sr” value (shortened to “Catalytic Activity in the Presence … Sr”) is on record as 0.02 picomoles per minute per nanogram. Further, in data set [2] (Mn^2+), the “K1 compared with binding to the primary site of the wild type” value is recorded as “fifty-fold lower”. For the same molecule, the Kd in data set [2] (single metal binding site model, derived from FIG. 1B, read-out: binding constant K1 for Mn^2+) amounted to 500 nM.

B2: M344A: Met344 mutant of β4Gal-T1, Met344 to Ala (protein, listed as Bos taurus)
chain: MKFREPLLGGSAAMPGASLQRACRLLVAVCALHLGVTLVYYLAGRDLRRLPQLVGVHPPLQGSSHGAAAIGQPSGELRLRGVAPPPPLQNSSKPRSRAPSNLDAYSHPGPGPGPGSNLTSAPVPSTTTRSLTACPEESPLLVGPMLIEFNIPVDLKLIEQQNPKVKLGGRYTPMDCISPHKVAIIILFRNRQEHLKYWLYYLHPMVQRQQLDYGIYVINQAGESMFNRAKLLNVGFKEALKDYDYNCFVFSDVDLIPMNDHNTYRCFSQPRHISVAMDKFGFSLPYVQYFGGVSALSKQQFLSINGFPNNYWGWGGEDDDIYNRLAFRGMSVSRPNAVIGKCRAIRHSRDKKNEPNPQRFDRIAHTKETMLSDGLNSLTYMVLEVQRYPLYTKITVDIGTPS
On to B2, for which, in data set [1], the “Catalytic Activity in the Presence … Co” value is 0.61^b picomoles per minute per nanogram, the “Catalytic Activity in the Presence … Zn” value is recorded as 0.64 picomoles per minute per nanogram, the “Catalytic Activity in the Presence of Various Metal Ions: Ca” value is 0 picomoles per minute per nanogram and the “Catalytic Activity in the Presence … Mg” value is listed as 0 picomoles per minute per nanogram. Besides, in data set [1], the “Catalytic Activity in the Presence … Mn” value was 4.16 picomoles per minute per nanogram and the “Catalytic Activity in the Presence … Sr” value is listed as 0 picomoles per minute per nanogram.

B3: M344Q: Met344 mutant of β4Gal-T1, Met344 to Gln (protein, listed as Bos taurus)
chain: MKFREPLLGGSAAMPGASLQRACRLLVAVCALHLGVTLVYYLAGRDLRRLPQLVGVHPPLQGSSHGAAAIGQPSGELRLRGVAPPPPLQNSSKPRSRAPSNLDAYSHPGPGPGPGSNLTSAPVPSTTTRSLTACPEESPLLVGPMLIEFNIPVDLKLIEQQNPKVKLGGRYTPMDCISPHKVAIIILFRNRQEHLKYWLYYLHPMVQRQQLDYGIYVINQAGESMFNRAKLLNVGFKEALKDYDYNCFVFSDVDLIPMNDHNTYRCFSQPRHISVAMDKFGFSLPYVQYFGGVSALSKQQFLSINGFPNNYWGWGGEDDDIYNRLAFRGMSVSRPNAVIGKCRQIRHSRDKKNEPNPQRFDRIAHTKETMLSDGLNSLTYMVLEVQRYPLYTKITVDIGTPS
Take B3: in data set [1], the “Catalytic Activity in the Presence … Co” value is listed as 0.80^b picomoles per minute per nanogram, the “Catalytic Activity in the Presence … Zn” value is listed as 0.71 picomoles per minute per nanogram, the “Catalytic Activity in the Presence of Various Metal Ions: Ca” value was 0 picomoles per minute per nanogram and the “Catalytic Activity in the Presence … Mg” value is 0 picomoles per minute per nanogram. For the same molecule, in data set [1], the “Catalytic Activity in the Presence … Mn” value is on record as 1.91 picomoles per minute per nanogram and the “Catalytic Activity in the Presence … Sr” value is recorded as 0 picomoles per minute per nanogram.

B4: M344S: Met344 mutant of β4Gal-T1 (protein, listed as Bos taurus)
chain: MKFREPLLGGSAAMPGASLQRACRLLVAVCALHLGVTLVYYLAGRDLRRLPQLVGVHPPLQGSSHGAAAIGQPSGELRLRGVAPPPPLQNSSKPRSRAPSNLDAYSHPGPGPGPGSNLTSAPVPSTTTRSLTACPEESPLLVGPMLIEFNIPVDLKLIEQQNPKVKLGGRYTPMDCISPHKVAIIILFRNRQEHLKYWLYYLHPMVQRQQLDYGIYVINQAGESMFNRAKLLNVGFKEALKDYDYNCFVFSDVDLIPMNDHNTYRCFSQPRHISVAMDKFGFSLPYVQYFGGVSALSKQQFLSINGFPNNYWGWGGEDDDIYNRLAFRGMSVSRPNAVIGKCRSIRHSRDKKNEPNPQRFDRIAHTKETMLSDGLNSLTYMVLEVQRYPLYTKITVDIGTPS
As for B4, in data set [1], the “Catalytic Activity in the Presence … Co” value is listed as 0.41 picomoles per minute per nanogram, the “Catalytic Activity in the Presence … Zn” value is recorded as 0.40 picomoles per minute per nanogram, the “Catalytic Activity in the Presence of Various Metal Ions: Ca” value is 0 picomoles per minute per nanogram and the “Catalytic Activity in the Presence … Mg” value is listed as 0 picomoles per minute per nanogram. Besides, in data set [1], the “Catalytic Activity in the Presence … Mn” value is reported as 1.97 picomoles per minute per nanogram and the “Catalytic Activity in the Presence … Sr” value is listed as 0 picomoles per minute per nanogram.
